Results from the supplement of paper PMC12636428.

Tested on: Saccharomyces cerevisiae
Experiment: transcriptional activation domain activity (GFP:mCherry ratio, weighted mean of sorted bins, harmonized to initial dataset scale) (arbitrary fluorescence ratio units); higher = stronger transcriptional activation
Conditions: beta-estradiol 1 µM; induction time 4 h
In short: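 In diploid yeast carrying a GFP reporter, barcoded protein tiles fused to an estradiol-inducible synthetic transcription factor were integrated at the URA3 locus. Cultures diluted 1:5 into SC with 1 uM beta-estradiol were kept at 30 °C for 4 hours, then sorted by GFP:mCherry ratio into 8 bins before barcode sequencing. Tiles with under 50 reads were excluded. The activation activity reported here is the read-weighted mean of bin median fluorescence, averaged across barcodes and linearly rescaled to the initial dataset.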

Row | Sequence | transcriptional activation domain activity
1 | MMRRWNELGLDGWVQNQHGLDSFAFLQLAFRLPICCIFPSKILVVFPLLLLSA | 52900
2 | TGRLQFKWAFVPYILARFVLLGQLLALTLVLRNLQTLIHCGKVLRWLTIVSNV | 60000
3 | EVLHLFIHFSFIFALYMLCFFLPAKHLCNLLTWYKYLFFLLSIMLFFLILIGT | 64200
4 | DDERERKRAKGDKDEECHKEPKRSARDKQEESSTTRNSRQSKKPKTAAQPEAK | 7230
5 | PSLLVLAAHTLAKHGVLAPMSTLITRFLELPFQIKRPQLYYNLLLHAISRFPS | 70100
6 | MVLLCAYERVGLGRSIGFGIFFFLPLFLLLLLTHFSFLFFFFAFTFILMMACL | 57800
7 | WSVVFPLQEEEKKKNEEEGLAFPSLDNIKGILRPDSCMRLGSSANIVVLTFPD | 53600
8 | FGVGMVPLGCQWACHLVALMVLFDVGWLCISRFILLDSMLLFFTFLTVFCMTK | 57900
9 | MCVFLFFVLWLLQKLGLLALALRCYVQKNSLIFFLFFFLVLDYIFFFLHWCKH | 35300
10 | MPWGGWGYIFDVTRPFFFCFISCLFLFYICLLGFLVGFFCFSFFFDLFIFFMT | 24600
11 | MFMSTLLLVFIHYGWAFFLGCCLWCFVISLCFWYVKLWLLVGCYILVLCDVAR | 37400
12 | PDVLRKGAKFFCDETVLVKLQIVTLAAKLLVLSPNNLTLILLTKYVFGLARYD | 63000
13 | VGKSCGRCRFPICYNPRGTCICCALRSNIVIPWMHFAYRNPHDRKPFVLHFTF | 41700
14 | GDEIVVVIQRARPVSAAAASSVTAVKVRRGDVRRAVIVRTRKAVRRPDGRYIR | 70400
15 | DRNYKRVAKQVGFTIDRKRGDDLRHFPIERARLEIIWPLLYTGLACILCYGWA | 70900
16 | RKPEAAAEKAAEAPEAAGGEGTRRRASGRGRGRGRNGRGGRSARAGEEKKDET | 29500
17 | KADDEKPKKAARGAKAKKEEDEDEEADEEQEEPKKPARKPRAKAEPKKAPAKS | 23100
18 | EEAAAPAASKGQGTAAAASGRSRNRRRGAGEDGKGKAERGGEAMTSAPSPAKP | 13400
19 | MAVIWGLDLKDMQWSKFKGSYMFNNVYHLRKVKMIVYQIAMILCVVSESVGTA | 66800
20 | SSSNSGGGGGVPEHILARVGYAVVSGLHFLKTKLNVIHRDVKPSNVLCSRAGD | 42900
21 | ASIPDPAADDDDAEFGGTGEKKPRKRAPKAASGESKNGKAKAVKTEGGASAAG | 33300

Row | Sequence | transcriptional activation domain activity
22 | DKEKMEDGLIRVRLYFFTKLAGKPFYPTLLWSCLHSLTLKRLVALLRKSQLSA | 68900
23 | FDHPLIPNRRKTYMRFEGCNPDMGCTIILRGADIITLRRLKKVMRFVTFMVRN | 70100
24 | RLLNKTRQCHDDGIAVLQNSIETISTTLVLWTHREVIGPLQLNLNWVAMSFAC | 48200
25 | SEESEGETGGKRKRKASSSSGRGEKGKKSKRGGGPEARTRKRKAAAETAETGE | 23500
26 | LLLLPVSFLVLSGIYSPFILILFDSPWPVLYVLIYFPLCYFVLSPYIIFALSP | 51200
27 | MSSSDPLRKRDFEDSTRRLACDRCRGQKLRCERITGKTTSPCRRCVKARARCT | 35300
28 | DEVLKPLWLGIRLHRGKGLAAFLKAIGFIIPLMDPNTLTVILIREFQTSDEEM | 15100
29 | EKEAVVKDTASSTRAKTTRSKPKAAPAAAEPPKTATRGRGAAKLAADKPAPKT | 23400
30 | MHTHAVTRSLFLYFLLNFFFIFFLLLEGFGLLLDFSFFFVLFRLDSLSLLFVF | 76000
31 | MATAEPTKKRGRPKKVVLVEESAGNAEAVVAEVVKKTTTKKTSTKAPAAPVTT | 40300
32 | LSSSSSVQTSAATTVVLVSGSDDKLVKAAGDALRARLGVKGGGKGQKWSGKFT | 17600
33 | NCVGHFTYGHFLRFLFYVDVACAYHLSMITWRVFHAMHASYWASPFTEMIFII | 65500
34 | PFGICGSFLGLFFCVMGLIAHMPSIWLVRGGNHSYTSLPGNSWLCVIFCLFSC | 49200
35 | VLMDERISLKNDLSSQDVALFLSLASSVASGSLLLRPPNVWIVVWTYLHRRHG | 66900
36 | FRVNLMSCIVARLSKKSWIRSVSFPADLTGTASLEIVRLLNRMVKEKRFNIHP | 36300
37 | MYYDKRSAMLQGLLLMGPRACGFHWSCILAILGLATLVSVDLVQLSYHLPRAV | 32700
38 | KEKEVKAEVEEDGSEQEEGEGEEEEEGATRSSARKGKGRATAGGRKTRRGAAG | 19400
39 | EEAFVAINLRNLLTFGLTYFINDWILDDGVLFVFCILGMLFLVVCLMTIPLWI | 29000
40 | NESGPGAADEDAEEDDEESDEDGAGRKRKKPKVEPKPKPERKAPAPAPADGEK | < 6570
41 | YCLLYWVWWFLAFSCWVFCLIYIFAIHCLIWVLVWLSVCFLLMGGYLFFCKED | 30600
42 | EEEAELAKPAKRPRESDATERDASTGDEVSKKKSKKLKAENGAPVAAPAGTSG | 39300

Row | Sequence | transcriptional activation domain activity
43 | LQAMLLLAHMILAIPFFSLFCRLLLLHPTNPDSPVLWMSLHVFFTYLWSLALV | 66000
44 | RRRVNLLVCTCGMLISLIVVGGLGTTHRGGPFNKPVGITIVVFSYINIICFNF | 45300
45 | IIKSLVGCLFFVLCPIVLVHSTSCYPRILYPLSYLLFLFWVPHLLFACRVTFT | 56400
46 | GRPAKSQAEEPVEAAPEPKKRDRQANVAPEPVIEEAPVVKKGRGRPKKDAVTV | 29600
47 | MAIFRIYVLIAVVRLGDILTDIYVVGGVLLLLRYQVFLMFFHFFFFLFFYTGL | 43700
48 | IKDIEINDLRNRYTLTKGAVQKKGPRLVRPLRISSSPECTEPRPSPCLSVSLS | 45600
49 | IRIADMHANFFYKNINYTLSLFIFQIWCHFNSTYLFDYTLLMLFNLLFTSLPV | 37100
50 | IILDLLLRFSKVENVISQAVDSPPMGRLGCCAIVTGSAVAWALCTATRFRLVL | 52600
51 | STMHSNIGYIATLCLNLTLLLPLKDHPMVNNYVLVLVNSYWVLTGIWWFIFQQ | 35000
52 | TSLRLVMFQITFLDLFFKAYGSNIARLDNNYGFPDKQLPERMVEEVKAIYKIN | 56500
53 | NGGGEQPKGGRGGKSEGGAGNDQGRTNNRGRGDRRGGRGGRDNRGGRGGGSRD | < 6570
54 | FCHIALFPSIGLKDTNYIPRAMDGVRFAHLESLHLQFNMYWLGPMYAWALHIL | 52500
55 | EVLITKKPAKQTRGKKAPTAAVNKAEIEEGQDDVNFANVGRGRKRAVAKKVVE | 25700
56 | MITYILRLGFDYLPPLALWIAIVLVHYTYVCCFLVVACENTCRWHMVQFNLRH | 73300
57 | MSYCIDFPVISSFPAASFYFIFMGTLQDHLPFSLLVYSTLIPFFFFSFLFLSF | 41600
58 | EAKKEGEHGAAPAGEHGAAPAAGGHGAEAKKEGEHGAAPAAGGHGAAPAAGGH | 21300
59 | FALTFFWSLIGYWVPFFEAIHLFWWIGYRANYVPLMSADVAWRWFFKWDFPFF | 62000
60 | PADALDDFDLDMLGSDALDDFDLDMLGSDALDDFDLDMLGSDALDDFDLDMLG | 152000
61 | DEYGNAKIRDLRLKPVQTISDSQTVDEAVELMRDKGYDQVPVTSSTGRRLVGM | 73300
62 | VIFSFLVLNFFYFSISFFLSSSFISYFHFHLSLFPFPFSFVFLIHYLFSFIVN | 26300
63 | GAAASPPPNPDGGKPRKRKGPKEKGGEGNAAARRDAGAGAGAGAARSGSAAAA | 27100

Row | Sequence | transcriptional activation domain activity
64 | VRRLLWVTVIFDICFGMLYVLLAIFQCRPISYYWLGWDGEHQGTCLNVNGLAW | 46600
65 | MHPPTHYRLLSPPLFPYIFFFQVGFLLRFFSLFFSLVSLVLILCVTFFFFFFG | 57500
66 | NWYKHINWLNTFFVVIMPMLGFIAAYWVPLHRYTALFAIFYYVHCGLGITAGY | 68500
67 | RGGRGRRNGGKERGKEKKGKKEEENDRRGKGKERKERRKNDGGKRREGREREK | 47600
68 | MYFASYIFISFFSLFISIIHPFKIYYILLYTHHIIISIQLLLPFHFLTSIILS | 80300
69 | ATEKEVKPKKAAAPKKAAAPKEKKEKVEKAEKAPKPKANAAKKVKKTASAPAV | 20200
70 | VVFNQIWIYFFIYTMIFICLILVAFYTVLLVLLIHPKKIPHNTRTVLNVYRAR | 66100
71 | MATLDVFLRVYCFTLSFLLFLFLIIIFILAYSAFAVDFFFLFVYSSTIELCFI | 36200
72 | NPSSAPAQTATTAASGTPSLFGSKPAQATGAPSSLFGGQPAAASTGASTQATP | 24200
73 | TEVQNYPHALDLITDNLDDDFQDELRGSLDVQARLLYGLIHARWIVTARGLSK | 40200
74 | MSPRAFFPPWFDFVHAFLVYALVARRLRLLFLPTHLAMHCTHLSLSLTLLFLL | 60500
75 | KARQEKQPPMTQKDLATKVNEKPSVINDYESGRAVPNQQVLSKLERALQVKLR | 22500
76 | EKEEDAQLRDRHRGRHSVDRDLHRRGGRVRDRSRGERSLRNQPRAAGAGAAAG | 57600
77 | MGRVVGVGSFYVWICHFFYIFSFFFSPMMNWTGSGLVGCVMALLYFILSFSFS | 46200
78 | NNCVGYFNYCHFIRLIVYANITTIYIFVLLCCRAHQIIFIQSASLEVGFLCVN | 66500
79 | KLGVCLLLILDSLHTTFCIYAMYWYLVINFGVFPELAMMHWSFEAQQMLNVLV | 37800
80 | PSPFPPSLSPPLFPPFPPLPLCPPFLPLFPPSPLSPPFLPLFPPLFLPLSFPP | 50200
81 | NSFPKECEVVHEELRKLTHLVSALPREGLLYHGRLILRYLETVVCACLIMFDG | 71100
82 | YLAGPRVPFAPLSLPGIFLPTTWWNPGVFYFWTWRNHFYKTWGETVGFAPWFS | 80500
83 | TGGISELQNALDDTRASFAYVRLQYANDKESKREKFILVIWIGKSVKVMRKAK | 40200
